Assay results from article PMC4439256 (Experimental cell research, 2015).

B1: GST-tagged Cdc45N (1-303) (domain or fragment, human, UniProt O75419 1-303, looked up)
chain: MFVSDFRKEFYEVVQSQRVLLFVASDVDALCACKILQALFQCDHVQYTLVPVSGWQELETAFLEHKEQFHYFILINCGANVDLLDILQPDEDTIFFVCDTHRPVNVVNVYNDTQIKLLIKQDDDLEVPAYEDIFRDEEEDEEHSGNDSDGSEPSEKRTRLEEEIVEQTMRRRQRREWEARRRDILFDYEQYEYHGTSSAMVMFELAWMLSKDLNDMLWWAIVGLTDQWVQDKITQMKYVTDVGVLQRHVSRHNHRNEDEENTLSVDCTRISFEYDLRLVLYQHWSLHDSLCNTSYTAARFKLW
B2: His-Cdc45 (natural protein, human, UniProt O75419 1-566, looked up)
chain: MFVSDFRKEFYEVVQSQRVLLFVASDVDALCACKILQALFQCDHVQYTLVPVSGWQELETAFLEHKEQFHYFILINCGANVDLLDILQPDEDTIFFVCDTHRPVNVVNVYNDTQIKLLIKQDDDLEVPAYEDIFRDEEEDEEHSGNDSDGSEPSEKRTRLEEEIVEQTMRRRQRREWEARRRDILFDYEQYEYHGTSSAMVMFELAWMLSKDLNDMLWWAIVGLTDQWVQDKITQMKYVTDVGVLQRHVSRHNHRNEDEENTLSVDCTRISFEYDLRLVLYQHWSLHDSLCNTSYTAARFKLWSVHGQKRLQEFLADMGLPLKQVKQKFQAMDISLKENLREMIEESANKFGMKDMRVQTFSIHFGFKHKFLASDVVFATMSLMESPEKDGSGTDHFIQALDSLSRSNLDKLYHGLELAKKQLRATQQTIASCLCTNLVISQGPFLYCSLMEGTPDVMLFSRPASLSLLSKHLLKSFVCSTKNRRCKLLPLVMAAPLSMEHGTVTVVGIPPETDSSDRKNFFGRAFEKAAESTSSRMLHNHFDLSVIELKAEDRSKFLDALISLLS

Assays:
[1] = target: HDHB helicase domain (aa 394-958) (human, UniProt Q8NG08 394-958); assay: pull-down
human DNA helicase B [2] = target: T1, human DNA helicase B (human, UniProt Q8NG08 1-1087); assay: pull-down
[3] = target: HDHB N-terminus (aa 1-393) (human, UniProt Q8NG08 1-393); assay: pull-down
human DNA helicase B [4] = target: T1, human DNA helicase B; assay: co-IP

T1 sequence (Q8NG08 whole entry, the tested form may be a part): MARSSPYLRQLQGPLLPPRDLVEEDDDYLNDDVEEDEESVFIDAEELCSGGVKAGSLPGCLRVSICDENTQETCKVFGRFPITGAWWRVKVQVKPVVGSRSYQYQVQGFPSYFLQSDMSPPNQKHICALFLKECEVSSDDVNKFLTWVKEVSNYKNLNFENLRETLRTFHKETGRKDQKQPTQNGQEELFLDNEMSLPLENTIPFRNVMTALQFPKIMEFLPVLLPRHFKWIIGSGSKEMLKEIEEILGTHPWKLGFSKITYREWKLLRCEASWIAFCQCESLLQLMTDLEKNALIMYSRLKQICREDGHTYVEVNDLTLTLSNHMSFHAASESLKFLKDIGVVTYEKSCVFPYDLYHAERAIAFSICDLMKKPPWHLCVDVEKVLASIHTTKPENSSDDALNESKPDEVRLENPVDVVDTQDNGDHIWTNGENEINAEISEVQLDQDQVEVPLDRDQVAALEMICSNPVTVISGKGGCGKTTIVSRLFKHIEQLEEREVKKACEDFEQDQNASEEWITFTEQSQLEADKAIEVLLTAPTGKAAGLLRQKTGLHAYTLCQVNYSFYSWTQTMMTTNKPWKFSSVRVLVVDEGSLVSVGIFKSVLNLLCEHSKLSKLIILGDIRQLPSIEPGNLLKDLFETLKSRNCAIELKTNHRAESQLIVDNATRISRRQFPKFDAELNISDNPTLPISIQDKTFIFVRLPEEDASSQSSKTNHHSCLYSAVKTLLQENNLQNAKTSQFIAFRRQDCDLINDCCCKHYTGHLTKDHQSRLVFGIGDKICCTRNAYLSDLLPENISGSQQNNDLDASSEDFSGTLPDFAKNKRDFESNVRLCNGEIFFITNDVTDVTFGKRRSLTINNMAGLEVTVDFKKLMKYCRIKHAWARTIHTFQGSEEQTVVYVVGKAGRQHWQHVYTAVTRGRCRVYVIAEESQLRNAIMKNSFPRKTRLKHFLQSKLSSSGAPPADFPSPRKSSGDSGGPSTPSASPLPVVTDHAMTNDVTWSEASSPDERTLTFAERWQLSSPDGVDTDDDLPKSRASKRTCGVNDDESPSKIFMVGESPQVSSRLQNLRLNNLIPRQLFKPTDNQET
Sequence of HDHB helicase domain (aa 394-958) (Q8NG08 394-958): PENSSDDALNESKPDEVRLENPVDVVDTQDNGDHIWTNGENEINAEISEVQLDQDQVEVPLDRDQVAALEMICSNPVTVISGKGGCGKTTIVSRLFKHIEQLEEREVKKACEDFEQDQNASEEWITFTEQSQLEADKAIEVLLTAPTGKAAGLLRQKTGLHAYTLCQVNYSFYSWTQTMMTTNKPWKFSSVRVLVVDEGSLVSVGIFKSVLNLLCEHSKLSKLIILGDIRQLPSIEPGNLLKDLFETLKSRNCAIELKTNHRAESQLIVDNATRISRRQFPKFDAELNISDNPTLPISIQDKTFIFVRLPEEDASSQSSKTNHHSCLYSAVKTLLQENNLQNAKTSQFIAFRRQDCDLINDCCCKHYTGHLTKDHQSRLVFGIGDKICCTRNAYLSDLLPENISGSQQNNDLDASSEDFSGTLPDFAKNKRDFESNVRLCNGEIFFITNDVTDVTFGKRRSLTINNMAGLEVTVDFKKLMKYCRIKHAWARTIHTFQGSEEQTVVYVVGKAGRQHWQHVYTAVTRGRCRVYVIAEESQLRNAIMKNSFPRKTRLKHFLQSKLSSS
Sequence of HDHB N-terminus (aa 1-393) (Q8NG08 1-393): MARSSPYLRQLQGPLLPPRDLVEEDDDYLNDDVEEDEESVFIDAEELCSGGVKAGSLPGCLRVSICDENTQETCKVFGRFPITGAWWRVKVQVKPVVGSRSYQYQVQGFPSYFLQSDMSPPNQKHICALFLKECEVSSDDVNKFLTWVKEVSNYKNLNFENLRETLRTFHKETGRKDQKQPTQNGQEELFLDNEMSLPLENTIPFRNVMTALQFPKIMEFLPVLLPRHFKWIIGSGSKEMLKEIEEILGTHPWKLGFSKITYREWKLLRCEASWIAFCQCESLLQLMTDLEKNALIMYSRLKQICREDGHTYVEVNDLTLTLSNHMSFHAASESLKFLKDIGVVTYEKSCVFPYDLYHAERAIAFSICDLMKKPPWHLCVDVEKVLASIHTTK

Binder | binding result [1] | binding result (human DNA helicase B [2]) | binding result [3] | binding result (human DNA helicase B [4])
B1 | binds | binds | binds | –
B2 | – | – | – | binds
